Experiment [1] concerns the target Phosphatase and tensin homolog deleted on chromosome 10 (PTEN) (African green monkey (endogenous in Vero)). Put plainly: co-IP; immunoprecipitation with PTEN, Rak or β-arrestin antibodies from Vero cells, mock, ARV-infected or p17-transfected, also with Rak shRNA, Rock-1 shRNA, Y-27632 or TBB; 500 ug cellular proteins with 4 ug antibody at 4°C overnight; Western blot; amounts normalized to mock controls. Background: In western blotting, separated proteins are transferred to a membrane and probed.

The target is the same in experiment [2]. Described as above. The source holds these as a separate data set.

Values joined by “and” are separate entries in the source; they are usually repeats but may differ in a detail not shown here. Equal entries are not always repeated. Where two headings read alike, the source gives them in different places.

Chain of Rak (P42685 whole entry): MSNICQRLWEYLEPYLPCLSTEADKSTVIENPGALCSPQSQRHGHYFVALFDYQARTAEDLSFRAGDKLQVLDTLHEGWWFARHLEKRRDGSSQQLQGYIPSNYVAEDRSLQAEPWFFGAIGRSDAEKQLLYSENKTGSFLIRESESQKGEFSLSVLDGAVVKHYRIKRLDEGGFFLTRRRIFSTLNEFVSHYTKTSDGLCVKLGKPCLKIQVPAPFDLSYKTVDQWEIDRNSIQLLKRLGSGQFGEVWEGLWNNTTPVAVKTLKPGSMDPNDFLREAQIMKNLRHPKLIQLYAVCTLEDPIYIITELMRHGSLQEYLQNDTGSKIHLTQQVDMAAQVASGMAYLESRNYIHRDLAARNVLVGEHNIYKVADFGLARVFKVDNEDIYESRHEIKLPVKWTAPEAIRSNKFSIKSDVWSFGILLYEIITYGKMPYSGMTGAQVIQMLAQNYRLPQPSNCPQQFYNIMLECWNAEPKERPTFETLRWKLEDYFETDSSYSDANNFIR

For the substance “Rak (from UniProt P42685-1 1-505) (natural protein)”, in experiment [1], the fold increase of Rak-PTEN association against mock, ARV-infected cells was found to be 3.8 fold and the fold increase of Rak-PTEN association against mock, p17-transfected cells came to 4.5 fold.

In experiment [1], β-arrestin (natural protein) showed a fold increase of β-arrestin-PTEN association against mock, ARV-infected cells of 3.5 fold and a fold increase of β-arrestin-PTEN association against mock, p17-transfected cells of 6 fold.

With E3 ligase NEDD4-1 (natural protein), the other is 2.8 fold and 3.1 fold in experiment [1]; 2.35 fold and 2.45 fold in experiment [2].

The values are drawn from PMC4526660.
